Assays:
[1] = molecular target: Amyloid Beta (antigen of the Amyloid Beta ELISA) (UniProt P05067 672-713, limits assumed); experiment: Amyloid Beta ELISA, antibody purified from NS0 cells
[2] = molecular target: T1, soluble polymeric amyloid beta (UniProt P05067 672-713); experiment: ELISA on plates coated with the amyloid preparation (55 µg/ml), AP-labelled anti-mouse IgG
T1 construct: also called Oligomer; polymeric soluble amyloid
Method: In order to evaluate the specificity of mC2 to different stages of polymerized amyloid protein, monomeric, polymeric soluble and fibrillic amyloid, an ELISA coated with these different stages of polymeric beta-amyloid was performed (FIG. 9). Monomers were prepared according to a modified method published by (Klein, 2002), soluble polymeric amyloid beta according to (Barghorn et al., 2005), whereas fibers were performed by incubation of amyloid (Bachem, Switzerland) with a final concentration of 1 μg/μl in Tris/HCl pH 7.4 at 37° C. for 5 days followed by a centrifugation step (10,000 rpm for 5 minutes). Then amyloid polymers were coated on an ELISA plates with a final concentration of 55 μg/ml and binding affinity ELISA by using an anti-mouse IgG monoclonal antibody (Jackson) labelled with alkaline phosphate was performed.

Chain of Amyloid Beta (antigen of the Amyloid Beta ELISA) (P05067 672-713 limits assumed): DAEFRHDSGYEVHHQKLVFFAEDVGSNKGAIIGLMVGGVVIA
T1 sequence (P05067 672-713): as the sequence (P05067 672-713 limits assumed) above

EC50 (read off the curve) [1] [ng/well]	EC50 (read off the curve) [2] [µg/mL]	Binder
~4	–	C2HuVH4/HuVK2 humanized antibody (antibody, human IgG4 S228P, kappa, V domains shown, also called C2HuVHAF4 with C2HuVK2) VH: EVQLVESGGGLVQPGGSLRLSCAASGFTFSSYGMSWVRQAPGKGLELVASINSNGGSTYYPDSVKGRFTISRDNAKNSLYLQMNSLRAEDTAVYYCASGDYWGQGTTVTVSS VL: DIVMTQSPLSLPVTPGEPASISCRSSQSLVYSNGDTYLHWYLQKPGQSPQLLIYKVSNRFSGVPDRFSGSGSGTDFTLKISRVEAEDVGVYFCSQSTHVPWTFGQGTKVEIKR
–	~0.4	mouse monoclonal antibody ACI-01-Ab7C2 (antibody, V domains shown, Mouse IgG2b/kappa from hybridoma FP-12H3-C2 (DSM ACC2750); also called mC2; Mouse ACI-01-Ab-7-C2) VH: EVQLVESGGGLVQPGGSLKLSCAASGFTFSSYGMSWVRQTPDKRLELVASINSNGGSTYYPDSVKGRFTISRDNAKNTLYLQMSSLKSEDTAMYYCASGDYWGQGSTLTVSS VL: DVVMTQTPLSLPVSLGDQASISCRSSQSLVYSNGDTYLHWYLQKPGQSPKLLIYKVSNRFSGVPDRFSGSGSGTDFTLKISRVEAEDLGVYFCSQSTHVPWTFGGGTKLEIK

Reference: patent US20100080800A1 (AC IMMUNE S A, published 2010)
